Measured values from patent EP2265113B1.

Experiments:
[1] = biological target: H-ferritin receptors (binding sites) on bovine retinal endothelial cells (BREC cell homogenate); assay: saturation binding of 125I-H-ferritin to BREC homogenate, one-site global fit
[2] = biological target: H-ferritin receptors (binding sites) on rat brain microvasculature (isolated microvessels); assay: saturation binding of 125I-H-ferritin to rat brain microvessels, one-site global fit
[3] = biological target: H-ferritin receptors (binding sites) on bovine retinal endothelial cells (BREC cell homogenate); assay: homologous competition: unlabelled H-ferritin against 0.4 nM 125I-H-ferritin on BREC homogenate, one-site competition fit

recombinant human H-ferritin (His tagged, expressed in E. coli, nickel column purified) (from UniProt P02794 1-183) (ligand)
Bmax (fmol/mg protein) [1]: 466
Kd [1]: 2.7 nM
Bmax (fmol/mg protein) [2]: 573
Kd [2]: 7.9 nM
Kd [3]: 2 nM
